# Residue numbers refer to the chain shown, from its start.
# T1: Recombinant Human IL-17 (human, UniProt Q16552 20-155, limits assumed)
# T1 construct: bought reagent
# T1 sequence (looked up): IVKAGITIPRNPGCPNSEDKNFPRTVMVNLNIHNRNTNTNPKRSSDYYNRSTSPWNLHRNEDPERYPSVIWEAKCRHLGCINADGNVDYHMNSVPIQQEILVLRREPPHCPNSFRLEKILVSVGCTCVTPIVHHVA
# B1: DVD1597 (bispecific antibody, human IgG1, kappa)
# heavy: not shown
# light: ETTVTQSPSSLSASVGDRVTITCITSTDIDVDMNWYQQKPGKPPKLLISQGNTLRPGVPSRFSSSGSGTDFTFTISSLQPEDFATYYCLQSDNLPLTFGQGTKLEIKRTVAAPSVFIFPPDIQMTQSPSSLSASVGDRVTITCRASSGIISYIDWFQQKPGKAPKRLIYATFDLASGVPSRFSGSGSGTDYTLTISSLQPEDFATYYCRQVGSYPETFGQGTKLEIKRTVAAPSVFIFPPSDEQLKSGTASVVCLLNNFYPREAKVQWKVDNALQSGNSQESVTEQDSKDSTYSLSSTLTLSKADYEKHKVYACEVTHQGLSSPVTKSFNRGEC
# notes: DVD-Ig, outer AB272, inner AB273, linker set 2; V1 wt hIgG1, V2 kappa; also called DVD1597H; DVD1597L
# B2: DVD1599 (bispecific antibody, human IgG1, kappa)
# heavy: not shown
# light: DIQMTQSPSSLSASVGDRVTITCRASGNIHNYLTWYQQTPGKAPKLLIYNAKTLADGVPSRFSGSGSGTDYTFTISSLQPEDIATYYCQHFWSIPYTFGQGTKLQITRTVAAPSVFIFPPEIVLTQSPDFQSVTPKEKVTITCRASQDIGSELHWYQQKPDQPPKLLIKYASHSTSGVPSRFSGSGSGTDFTLTINGLEAEDAGTYYCHQTDSLPYTFGPGTKVDIKRTVAAPSVFIFPPSDEQLKSGTASVVCLLNNFYPREAKVQWKVDNALQSGNSQESVTEQDSKDSTYSLSSTLTLSKADYEKHKVYACEVTHQGLSSPVTKSFNRGEC
# notes: V1 wt hIgG1, V2 kappa; also called DVD1599H; DVD1599L
# B3: DVD1609 (bispecific antibody, human IgG1, kappa)
# heavy: not shown
# light: B2 light with D148N, P163S, T175I, G204A, T211S, S213T, Y216H, P220Q
# notes: V1 wt hIgG1, V2 kappa; also called DVD1609H; DVD1609L
# B4: DVD1601 (bispecific antibody, human IgG1, kappa)
# heavy: not shown
# light: B2 light
# notes: V1 wt hIgG1, V2 kappa; also called DVD1601H; DVD1601L
# B5: DVD1611 (bispecific antibody, human IgG1, kappa)
# heavy: not shown
# light: B2 light with D148N, P163S, T175I, G204A, T211S, S213T, Y216H, P220Q
# notes: V1 wt hIgG1, V2 kappa; also called DVD1611H; DVD1611L
# B6: DVD1603 (bispecific antibody, human IgG1, kappa)
# heavy: not shown
# light: DTQVTQSPSSLSASVGDRVTITCITSTDIDVDMNWYQQKPGKPPKLLISQGNTLRPGVPSRFSSSGSGTDFTFTISSLQPEDFATYYCLQSDNLPLTFGQGTKLEIKRTVAAPSVFIFPPEIVLTQSPDFQSVTPKEKVTITCRASQDIGSELHWYQQKPDQPPKLLIKYASHSTSGVPSRFSGSGSGTDFTLTINGLEAEDAGTYYCHQTDSLPYTFGPGTKVDIKRTVAAPSVFIFPPSDEQLKSGTASVVCLLNNFYPREAKVQWKVDNALQSGNSQESVTEQDSKDSTYSLSSTLTLSKADYEKHKVYACEVTHQGLSSPVTKSFNRGEC
# notes: DVD-Ig, outer AB270, inner AB274, linker set 2; V1 wt hIgG1, V2 kappa; also called DVD1603H; DVD1603L
# B7: DVD1613 (bispecific antibody, human IgG1, kappa)
# heavy: not shown
# light: B6 light with D148N, P163S, T175I, G204A, T211S, S213T, Y216H, P220Q
# notes: DVD-Ig, outer AB270, inner AB275, linker set 2; V1 wt hIgG1, V2 kappa; also called DVD1613H; DVD1613L
# B8: DVD1605 (bispecific antibody, human IgG1, kappa)
# heavy: not shown
# light: DTVVTQSPAFLSVTPGEKVTITCITSTDIDVDMNWYQQKPDQPPKLLISQGNTLRPGVPSRFSSSGSGTDFTFTISSLEAEDAATYYCLQSDNLPLTFGQGTKLEIKRTVAAPSVFIFPPEIVLTQSPDFQSVTPKEKVTITCRASQDIGSELHWYQQKPDQPPKLLIKYASHSTSGVPSRFSGSGSGTDFTLTINGLEAEDAGTYYCHQTDSLPYTFGPGTKVDIKRTVAAPSVFIFPPSDEQLKSGTASVVCLLNNFYPREAKVQWKVDNALQSGNSQESVTEQDSKDSTYSLSSTLTLSKADYEKHKVYACEVTHQGLSSPVTKSFNRGEC
# notes: DVD-Ig, outer AB271, inner AB274, linker set 2; V1 wt hIgG1, V2 kappa; also called DVD1605H; DVD1605L
# B9: DVD1615 (bispecific antibody, human IgG1, kappa)
# heavy: not shown
# light: B8 light with D148N, P163S, T175I, G204A, T211S, S213T, Y216H, P220Q
# notes: DVD-Ig, outer AB271, inner AB275, linker set 2; V1 wt hIgG1, V2 kappa; also called DVD1615H; DVD1615L
# B10: DVD1625 (bispecific antibody, human IgG1, kappa)
# heavy: not shown
# light: DTVVTQSPAFLSVTPGEKVTITCITSTDIDVDMNWYQQKPDQPPKLLISQGNTLRPGVPSRFSSSGSGTDFTFTISSLEAEDAATYYCLQSDNLPLTFGQGTKLEIKRTVAAPDIQMTQSPSSLSASVGDRVTITCRASSGIISYIDWFQQKPGKAPKRLIYATFDLASGVPSRFSGSGSGTDYTLTISSLQPEDFATYYCRQVGSYPETFGQGTKLEIKRTVAAPSVFIFPPSDEQLKSGTASVVCLLNNFYPREAKVQWKVDNALQSGNSQESVTEQDSKDSTYSLSSTLTLSKADYEKHKVYACEVTHQGLSSPVTKSFNRGEC
# notes: DVD-Ig, outer AB271, inner AB273, linker set 3; V1 wt hIgG1, V2 kappa; also called DVD1625H; DVD1625L
# B11: DVD1629 (bispecific antibody, human IgG1, kappa)
# heavy: not shown
# light: DIQMTQSPSSLSASVGDRVTITCRASGNIHNYLTWYQQTPGKAPKLLIYNAKTLADGVPSRFSGSGSGTDYTFTISSLQPEDIATYYCQHFWSIPYTFGQGTKLQITRTVAAPEIVLTQSPDFQSVTPKEKVTITCRASQDIGSELHWYQQKPDQPPKLLIKYASHSTSGVPSRFSGSGSGTDFTLTINGLEAEDAGTYYCHQTDSLPYTFGPGTKVDIKRTVAAPSVFIFPPSDEQLKSGTASVVCLLNNFYPREAKVQWKVDNALQSGNSQESVTEQDSKDSTYSLSSTLTLSKADYEKHKVYACEVTHQGLSSPVTKSFNRGEC
# notes: V1 wt hIgG1, V2 kappa; also called DVD1629H; DVD1629L
# B12: DVD1631 (bispecific antibody, human IgG1, kappa)
# heavy: not shown
# light: B11 light
# notes: V1 wt hIgG1, V2 kappa; also called DVD1631H; DVD1631L
# B13: DVD1623 (bispecific antibody, human IgG1, kappa)
# heavy: not shown
# light: DTQVTQSPSSLSASVGDRVTITCITSTDIDVDMNWYQQKPGKPPKLLISQGNTLRPGVPSRFSSSGSGTDFTFTISSLQPEDFATYYCLQSDNLPLTFGQGTKLEIKRTVAAPDIQMTQSPSSLSASVGDRVTITCRASSGIISYIDWFQQKPGKAPKRLIYATFDLASGVPSRFSGSGSGTDYTLTISSLQPEDFATYYCRQVGSYPETFGQGTKLEIKRTVAAPSVFIFPPSDEQLKSGTASVVCLLNNFYPREAKVQWKVDNALQSGNSQESVTEQDSKDSTYSLSSTLTLSKADYEKHKVYACEVTHQGLSSPVTKSFNRGEC
# notes: DVD-Ig, outer AB270, inner AB273, linker set 3; V1 wt hIgG1, V2 kappa; also called DVD1623H; DVD1623L
# B14: DVD1627 (bispecific antibody, human IgG1, kappa)
# heavy: not shown
# light: B13 light with D1E, Q3T
# notes: DVD-Ig, outer AB272, inner AB273, linker set 3; V1 wt hIgG1, V2 kappa; also called DVD1627H; DVD1627L
# Target: T2, Recombinant Human IL-1β (human, UniProt P01584 117-269)
# T2 construct: bought reagent; also called IL-1B
# Test: Biacore SPR; N-terminal VD
# Outline: (§1)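 SPR, 25° C, HBS-EP (10 mM HEPES pH 7.4, 150 mM NaCl, 3 mM EDTA, 0.005% P20). Capture via anti-mouse IgG Fcγ chip; analyte 10−200 nM at 25 μl/min. 1:1 Langmuir global fit; KD = koff/kon.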
Binder,Kd [pM],koff [s⁻¹],kon [M⁻¹ s⁻¹]
B1,75,0.00063,8.4e+06
B2,21,4.1e-05,2e+06
B3,22,4.6e-05,2.1e+06
B4,16,2e-05,1.2e+06
B5,420,0.00013,310000
B6,69,0.00048,6.9e+06
B7,59,0.00046,7.8e+06
B8,59,0.0005,8.6e+06
B9,55,0.00055,9.9e+06
B10,63,0.00054,8.6e+06
B11,39,7.3e-05,1.9e+06
B12,17,2.2e-05,1.3e+06
B13,75,0.00049,6.6e+06
B14,86,0.00059,6.8e+06

# Target: T1, Recombinant Human IL-17
# Test: Biacore SPR; C-terminal VD
# Outline: as §1
Binder,Kd [pM],koff [s⁻¹],kon [M⁻¹ s⁻¹]
B1,12,4.1e-06,350000
B2,≤ 0.074,< 1e-06,120000
B3,≤ 0.84,< 1e-06,89000
B4,≤ 0.12,< 1e-06,120000
B5,15,6e-05,4.1e+06
B6,≤ 0.27,< 1e-06,310000
B7,≤ 0.15,< 1e-06,360000
B8,≤ 0.068,< 1e-06,410000
B9,150,6e-05,390000
B10,5.1,3.2e-06,630000
B11,≤ 0.11,< 1e-06,1.4e+06
B12,≤ 0.14,< 1e-06,250000
B13,≤ 0.034,< 1e-06,230000
B14,8.4,1.7e-06,200000
